Reference: PMC9482650, “Quantitative fragmentomics allow affinity mapping of interactomes” (Nature Communications, 2022)

How the values were obtained:
Experiment in all cases: holdup assay
Set-up in all cases: key: below the threshold = too weak to quantify, mostly under pKd 3.1 to 4
Settings in all cases: plain residues with an end cap or a label only (N-terminal biotin on a linker: ado-ado)
APBA2_2, Q99767 = target: T1, APBA2_2, Q99767
T1 sequence (Q99767 654-744, limits assumed, looked up): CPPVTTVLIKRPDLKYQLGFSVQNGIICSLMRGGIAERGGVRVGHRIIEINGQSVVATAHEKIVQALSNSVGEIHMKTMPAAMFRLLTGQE

ARHGAP21, Q5T5U3 = target: T2, ARHGAP21, Q5T5U3
T2 sequence (Q5T5U3 45-169, limits assumed, looked up): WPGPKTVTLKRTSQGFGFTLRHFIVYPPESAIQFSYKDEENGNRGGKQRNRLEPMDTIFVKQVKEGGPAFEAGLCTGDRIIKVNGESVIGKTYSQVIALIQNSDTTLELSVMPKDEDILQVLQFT

DLG1_2, Q12959 = target: DLG1_2, Q12959
Chain of DLG1_2, Q12959 (Q12959 314-412): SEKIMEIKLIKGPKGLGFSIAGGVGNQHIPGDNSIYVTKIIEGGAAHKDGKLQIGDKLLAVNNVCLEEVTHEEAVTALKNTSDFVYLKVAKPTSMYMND

DLG1_3, Q12959 = target: DLG1_3, Q12959
Chain of DLG1_3, Q12959 (Q12959 457-571): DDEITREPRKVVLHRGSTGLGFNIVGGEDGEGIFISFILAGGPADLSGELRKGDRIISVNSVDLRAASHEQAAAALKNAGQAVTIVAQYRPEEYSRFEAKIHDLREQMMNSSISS

DLG4_3, P78352 = target: DLG4_3, P78352
Chain of DLG4_3, P78352 (P78352 306-403): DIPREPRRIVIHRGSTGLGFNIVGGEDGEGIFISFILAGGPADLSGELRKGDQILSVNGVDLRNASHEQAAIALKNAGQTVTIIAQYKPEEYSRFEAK

FRMPD2_1, Q68DX3 = target: FRMPD2_1, Q68DX3
Chain of FRMPD2_1, Q68DX3 (Q68DX3 770-861): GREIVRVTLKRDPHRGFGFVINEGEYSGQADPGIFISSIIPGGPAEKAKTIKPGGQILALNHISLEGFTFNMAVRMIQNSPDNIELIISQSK

GRIP1_4, Q9Y3R0 = target: T3, GRIP1_4, Q9Y3R0
T3 sequence (Q9Y3R0 467-571, limits assumed, looked up): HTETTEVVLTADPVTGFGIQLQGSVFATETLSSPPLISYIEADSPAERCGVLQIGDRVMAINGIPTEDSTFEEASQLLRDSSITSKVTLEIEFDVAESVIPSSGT

HTRA4, P83105 = target: T4, HTRA4, P83105
T4 sequence (P83105 378-476, limits assumed, looked up): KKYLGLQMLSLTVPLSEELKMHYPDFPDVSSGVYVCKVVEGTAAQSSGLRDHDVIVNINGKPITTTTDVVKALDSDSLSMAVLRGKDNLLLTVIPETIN

IL16_4, Q14005 = target: IL16_4, Q14005
Chain of IL16_4, Q14005 (Q14005 1229-1329): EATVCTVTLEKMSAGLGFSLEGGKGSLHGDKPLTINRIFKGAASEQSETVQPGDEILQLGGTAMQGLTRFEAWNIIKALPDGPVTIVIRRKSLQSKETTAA

Inadl_3, Q8NI35 = target: Inadl_3, Q8NI35
Chain of Inadl_3, Q8NI35 (Q8NI35 359-469): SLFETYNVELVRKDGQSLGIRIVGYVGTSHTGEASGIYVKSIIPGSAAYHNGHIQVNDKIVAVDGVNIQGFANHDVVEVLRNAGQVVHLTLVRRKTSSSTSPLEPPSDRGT

Inadl_6, Q8NI35 = target: Inadl_6, Q8NI35
Chain of Inadl_6, Q8NI35 (Q8NI35 1058-1167): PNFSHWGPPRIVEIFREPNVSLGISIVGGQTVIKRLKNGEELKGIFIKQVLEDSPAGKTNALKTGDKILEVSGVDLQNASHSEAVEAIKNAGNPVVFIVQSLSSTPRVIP

LAP2, Q96RT1 = target: LAP2, Q96RT1
Chain of LAP2, Q96RT1 (Q96RT1 other isoform, or with tags, fused parts or gaps): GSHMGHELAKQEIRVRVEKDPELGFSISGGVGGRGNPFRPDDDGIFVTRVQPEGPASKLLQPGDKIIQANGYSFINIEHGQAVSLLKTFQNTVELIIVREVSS

LIN7B, Q9HAP6 = target: T5, LIN7B, Q9HAP6
T5 sequence (Q9HAP6 88-185, limits assumed, looked up): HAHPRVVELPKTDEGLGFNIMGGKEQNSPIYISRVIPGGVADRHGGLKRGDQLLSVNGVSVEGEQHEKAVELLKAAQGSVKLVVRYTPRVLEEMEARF

LIN7C, Q9NUP9 = target: T6, LIN7C, Q9NUP9
T6 sequence (Q9NUP9 88-185, limits assumed, looked up): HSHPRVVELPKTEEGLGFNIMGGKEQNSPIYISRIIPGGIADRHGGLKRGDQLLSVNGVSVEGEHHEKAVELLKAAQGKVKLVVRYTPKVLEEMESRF

LNX1_2, Q8TBB1 = target: LNX1_2, Q8TBB1
Chain of LNX1_2, Q8TBB1 (Q8TBB1 371-470): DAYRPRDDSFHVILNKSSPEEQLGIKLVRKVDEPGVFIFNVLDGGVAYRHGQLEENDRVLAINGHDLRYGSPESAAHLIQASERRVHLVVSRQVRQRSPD

LNX1_3, Q8TBB1 = target: LNX1_3, Q8TBB1
Chain of LNX1_3, Q8TBB1 (Q8TBB1 500-596): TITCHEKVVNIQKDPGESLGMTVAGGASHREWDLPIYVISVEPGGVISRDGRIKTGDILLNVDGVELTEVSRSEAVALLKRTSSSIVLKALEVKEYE

LNX2_3, Q8N448 = target: T7, LNX2_3, Q8N448
T7 sequence (Q8N448 463-564, limits assumed, looked up): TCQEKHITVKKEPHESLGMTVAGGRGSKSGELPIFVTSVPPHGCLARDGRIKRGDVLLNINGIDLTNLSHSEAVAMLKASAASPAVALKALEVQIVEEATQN

MAGI2_4, Q86UL8 = target: MAGI2_4, Q86UL8
Chain of MAGI2_4, Q86UL8 (Q86UL8 772-865): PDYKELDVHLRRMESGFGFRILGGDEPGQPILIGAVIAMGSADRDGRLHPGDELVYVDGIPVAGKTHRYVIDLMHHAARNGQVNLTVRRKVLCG

NHERF3_4, Q5T2W1 = target: T8, NHERF3_4, Q5T2W1
T8 sequence (Q5T2W1 373-468, limits assumed, looked up): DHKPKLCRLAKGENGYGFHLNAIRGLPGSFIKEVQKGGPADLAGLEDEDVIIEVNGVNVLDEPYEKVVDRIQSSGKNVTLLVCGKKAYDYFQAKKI

PDZD2_2, O15018 = target: T9, PDZD2_2, O15018
T9 sequence (O15018 329-429, limits assumed, looked up): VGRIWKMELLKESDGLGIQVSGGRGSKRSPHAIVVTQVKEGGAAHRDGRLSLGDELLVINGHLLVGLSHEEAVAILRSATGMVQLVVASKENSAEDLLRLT

PDZRN3_1, Q9UPQ7 = target: T10, PDZRN3_1, Q9UPQ7
T10 sequence (Q9UPQ7 244-349, limits assumed, looked up): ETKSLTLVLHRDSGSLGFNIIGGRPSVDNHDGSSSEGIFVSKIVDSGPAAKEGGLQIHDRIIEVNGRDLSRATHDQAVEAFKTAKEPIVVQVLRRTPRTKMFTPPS

SCRIB_2, Q14160 = target: SCRIB_2, Q14160
Chain of SCRIB_2, Q14160 (Q14160 857-960): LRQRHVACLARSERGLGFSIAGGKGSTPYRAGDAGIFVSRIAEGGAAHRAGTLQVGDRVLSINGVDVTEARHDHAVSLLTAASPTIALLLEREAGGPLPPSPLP

SNTB1, Q13884 = target: T11, SNTB1, Q13884
T11 sequence (Q13884 107-205, limits assumed, looked up): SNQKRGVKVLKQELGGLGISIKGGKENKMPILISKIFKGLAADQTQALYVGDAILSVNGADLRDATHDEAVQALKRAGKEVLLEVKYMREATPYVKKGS

SNTG2, Q9NY99 = target: T12, SNTG2, Q9NY99
T12 sequence (Q9NY99 68-166, limits assumed, looked up): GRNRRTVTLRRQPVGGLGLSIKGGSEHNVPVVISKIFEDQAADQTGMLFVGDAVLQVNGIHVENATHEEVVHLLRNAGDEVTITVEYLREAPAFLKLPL

TJP1_3, Q07157 = target: TJP1_3, Q07157
Chain of TJP1_3, Q07157 (Q07157 416-512): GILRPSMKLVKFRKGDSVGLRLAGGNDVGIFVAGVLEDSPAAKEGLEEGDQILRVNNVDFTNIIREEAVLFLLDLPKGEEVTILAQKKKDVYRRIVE

| Binder | pKd (APBA2_2, Q99767) | pKd (ARHGAP21, Q5T5U3) | pKd (DLG1_2, Q12959) | pKd (DLG1_3, Q12959) | pKd (DLG4_3, P78352) | pKd (FRMPD2_1, Q68DX3) | pKd (GRIP1_4, Q9Y3R0) | pKd (HTRA4, P83105) | pKd (IL16_4, Q14005) | pKd (Inadl_3, Q8NI35) | pKd (Inadl_6, Q8NI35) | pKd (LAP2, Q96RT1) | pKd (LIN7B, Q9HAP6) | pKd (LIN7C, Q9NUP9) | pKd (LNX1_2, Q8TBB1) | pKd (LNX1_3, Q8TBB1) | pKd (LNX2_3, Q8N448) | pKd (MAGI2_4, Q86UL8) | pKd (NHERF3_4, Q5T2W1) | pKd (PDZD2_2, O15018) | also measured |
| --- | --- | --- | --- | --- | --- | --- | --- | --- | --- | --- | --- | --- | --- | --- | --- | --- | --- | --- | --- | --- | --- |
| LRSPRTPSEV [OR10G3, Q8NGC4] | below the threshold | 3.97 | 4.1 | below the threshold | below the threshold | below the threshold | below the threshold | 4 | 3.53 | below the threshold | below the threshold | 3.9 | 3.85 | 3.88 | below the threshold | below the threshold | below the threshold | below the threshold | below the threshold | 3.95 | pKd (PDZRN3_1, Q9UPQ7): below the threshold; pKd (SCRIB_2, Q14160): 3.6; pKd (SNTB1, Q13884): below the threshold; pKd (SNTG2, Q9NY99): below the threshold; pKd (TJP1_3, Q07157): below the threshold |
| RRRESYSTTV [EVI5, O60447] | below the threshold | 3.82 | 5.57 | 4.16 | 4.44 | 3.74 | below the threshold | 4.08 | below the threshold | 3.99 | below the threshold | 3.88 | below the threshold | 4.31 | 3.99 | below the threshold | below the threshold | 4.63 | below the threshold | 4.7 | pKd (PDZRN3_1, Q9UPQ7): 3.83; pKd (SCRIB_2, Q14160): below the threshold; pKd (SNTB1, Q13884): 4.65; pKd (SNTG2, Q9NY99): 4.13; pKd (TJP1_3, Q07157): below the threshold |
